Laboratory results as given in IntAct's records for PubMed 19242489.

B1: Integrin beta-4 (Homo sapiens), P16144 (parent)
chain: MAGPRPSPWARLLLAALISVSLSGTLANRCKKAPVKSCTECVRVDKDCAYCTDEMFRDRRCNTQAELLAAGCQRESIVVMESSFQITEETQIDTTLRRSQMSPQGLRVRLRPGEERHFELEVFEPLESPVDLYILMDFSNSMSDDLDNLKKMGQNLARVLSQLTSDYTIGFGKFVDKVSVPQTDMRPEKLKEPWPNSDPPFSFKNVISLTEDVDEFRNKLQGERISGNLDAPEGGFDAILQTAVCTRDIGWRPDSTHLLVFSTESAFHYEADGANVLAGIMSRNDERCHLDTTGTYTQYRTQDYPSVPTLVRLLAKHNIIPIFAVTNYSYSYYEKLHTYFPVSSLGVLQEDSSNIVELLEEAFNRIRSNLDIRALDSPRGLRTEVTSKMFQKTRTGSFHIRRGEVGIYQVQLRALEHVDGTHVCQLPEDQKGNIHLKPSFSDGLKMDAGIICDVCTCELQKEVRSARCSFNGDFVCGQCVCSEGWSGQTCNCSTGSLSDIQPCLREGEDKPCSGRGECQCGHCVCYGEGRYEGQFCEYDNFQCPRTSGFLCNDRGRCSMGQCVCEPGWTGPSCDCPLSNATCIDSNGGICNGRGHCECGRCHCHQQSLYTDTICEINYSAIHPGLCEDLRSCVQCQAWGTGEKKGRTCEECNFKVKMVDELKRAEEVVVRCSFRDEDDDCTYSYTMEGDGAPGPNSTVLVHKKKDCPPGSFWWLIPLLLLLLPLLALLLLLCWKYCACCKACLALLPCCNRGHMVGFKEDHYMLRENLMASDHLDTPMLRSGNLKGRDVVRWKVTNNMQRPGFATHAASINPTELVPYGLSLRLARLCTENLLKPDTRECAQLRQEVEENLNEVYRQISGVHKLQQTKFRQQPNAGKKQDHTIVDTVLMAPRSAKPALLKLTEKQVEQRAFHDLKVAPGYYTLTADQDARGMVEFQEGVELVDVRVPLFIRPEDDDEKQLLVEAIDVPAGTATLGRRLVNITIIKEQARDVVSFEQPEFSVSRGDQVARIPVIRRVLDGGKSQVSYRTQDGTAQGNRDYIPVEGELLFQPGEAWKELQVKLLELQEVDSLLRGRQVRRFHVQLSNPKFGAHLGQPHSTTIIIRDPDELDRSFTSQMLSSQPPPHGDLGAPQNPNAKAAGSRKIHFNWLPPSGKPMGYRVKYWIQGDSESEAHLLDSKVPSVELTNLYPYCDYEMKVCAYGAQGEGPYSSLVSCRTHQEVPSEPGRLAFNVVSSTVTQLSWAEPAETNGEITAYEVCYGLVNDDNRPIGPMKKVLVDNPKNRMLLIENLRESQPYRYTVKARNGAGWGPEREAIINLATQPKRPMSIPIIPDIPIVDAQSGEDYDSFLMYSDDVLRSPSGSQRPSVSDDTGCGWKFEPLLGEELDLRRVTWRLPPELIPRLSASSGRSSDAEAPHGPPDDGGAGGKGGSLPRSATPGPPGEHLVNGRMDFAFPGSTNSLHRMTTTSAAAYGTHLSPHVPHRVLSTSSTLTRDYNSLTRSEHSHSTTLPRDYSTLTSVSSHDSRLTAGVPDTPTRLVFSALGPTSLRVSWQEPRCERPLQGYSVEYQLLNGGELHRLNIPNPAQTSVVVEDLLPNHSYVFRVRAQSQEGWGREREGVITIESQVHPQSPLCPLPGSAFTLSTPSAPGPLVFTALSPDSLQLSWERPRRPNGDIVGYLVTCEMAQGGGPATAFRVDGDSPESRLTVPGLSENVPYKFKVQARTTEGFGPEREGIITIESQDGGPFPQLGSRAGLFQHPLQSEYSSITTTHTSATEPFLVDGLTLGAQHLEAGGSLTRHVTQEFVSRTLTTSGTLSTHMDQQFFQT

Variants of: B1
Settings: with plec_human PLEC

effect of a mutation on the interaction | Variant
disrupting interaction | R1281A

Variants of: B1
Settings: with plec_human PLEC
Remark: another data set of the same source

effect of a mutation on the interaction | Variant
disrupting interaction | R1225H
